{
  "source": "paper PMC5738261",
  "about": "(Journal of molecular biology, 2017)",
  "binders": {"B1": {"name": "10 nt poly-dT (crystal, DLS) (ssDNA)", "DNA": "TTTTTTTTTT"}, "B2": {"name": "10 nt poly-dT (FAM) (ssDNA)", "DNA": "TTTTTTTTTT"}, "B3": {"name": "wild-type hA3F-CD2 (APOBEC3F C-terminal catalytic domain, residues 190-373) (domain or fragment, human, UniProt Q8IUX4 190-373, looked up)", "chain": "NPMEAMYPHIFYFHFKNLRKAYGRNESWLCFTMEVVKHHSPVSWKRGVFRNQVDPETHCHAERCFLSWFCDDILSPNTNYEVTWYTSWSPCPECAGEVAEFLARHSNVNLTIFTARLYYFWDTDYQEGLRSLSQEGASVEIMGYKDFKYCWENFVYNDDEPFKPWKGLKYNFLFLDSKLQEILE"}, "B4": {"name": "50 nt RNA (ssRNA)", "RNA": "AUUAUUAUUAUUUAUCCCUAUUUAUAUUUAUUGUUAUUGUUAUUGUUAUA"}},
  "key": {"[1]": {"target": "A3F-CD2 WT (human, UniProt Q8IUX4 190-373)", "assay": "X-ray crystallography"}, "[2]": {"target": "T1, A3F-CD2 E251A K352A/K355A/K358A (human, UniProt Q8IUX4 190-373, E251A;K352A;K355A;K358A)", "assay": "EMSA"}, "[3]": {"target": "the molecule itself", "assay": "dynamic light scattering"}, "[4]": {"target": "the molecule itself", "assay": "dynamic light scattering", "remark": "listed apart in the source"}, "[5]": {"target": "T1, A3F-CD2 E251A K352A/K355A/K358A", "assay": "EMSA", "remark": "listed apart in the source"}},
  "note": "Like-named read-outs stand apart in the source and are kept apart here.",
  "data": [
    {"binder": "B1", "values": [
      {"measurement": "binding result", "setting": "[1]", "result": "binds"}
    ]},
    {"binder": "B2", "values": [
      {"measurement": "binding result", "setting": "[2]", "result": "no binding"}
    ]},
    {"binder": "B3", "values": [
      {"measurement": "stoichiometry N", "setting": "[3]", "result": 2},
      {"measurement": "stoichiometry N", "setting": "[4]", "result": 4}
    ]},
    {"binder": "B4", "values": [
      {"measurement": "binding result", "setting": "[5]", "result": "no binding"}
    ]}
  ]
}
